Results published in article PMC7289862, “Real-time tracking reveals catalytic roles for the two DNA binding sites of Rad51” (Nature Communications, 2019).
Positions count from the first letter of the chain named. Numbers in names are those of the source. One block for each binder: values may come before it.

Tests used:
Rad51 wild-type [1] = molecular target: T1, Rad51 wild-type (Schizosaccharomyces pombe, UniProt P36601 1-365); test: fluorescence anisotropy; 1 mM ATP, 3 mM MgCl2; Hill n 1.99; main text prints 2.79 uM; 30 mM HEPES-KOH pH 7.5, 100 mM KCl, 3 mM MgCl2, 1 mM DTT, 5% glycerol, 1 mM ATP, 25 C (EMSA: 2 mM ATP, 37 C, then 0.2% glutaraldehyde); conditions: protein: recombinant; label: 5' TAMRA on strand 1; blunt
T1 sequence: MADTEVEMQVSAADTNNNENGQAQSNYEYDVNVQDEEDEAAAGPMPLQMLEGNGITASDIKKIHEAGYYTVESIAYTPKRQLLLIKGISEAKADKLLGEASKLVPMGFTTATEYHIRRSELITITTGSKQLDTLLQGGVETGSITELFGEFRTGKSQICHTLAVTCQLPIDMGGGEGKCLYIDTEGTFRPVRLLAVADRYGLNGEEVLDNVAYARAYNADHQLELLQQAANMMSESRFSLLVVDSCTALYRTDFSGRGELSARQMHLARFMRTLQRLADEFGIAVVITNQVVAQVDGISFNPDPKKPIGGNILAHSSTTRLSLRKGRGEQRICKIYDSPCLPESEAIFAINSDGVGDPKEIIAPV

Rad51-L2 [2] = molecular target: T2, Rad51-L2 (Schizosaccharomyces pombe, UniProt P36601 1-365, V295A); test: fluorescence anisotropy; 1 mM ATP, 3 mM MgCl2; Hill n 1.80; 30 mM HEPES-KOH pH 7.5, 100 mM KCl, 3 mM MgCl2, 1 mM DTT, 5% glycerol, 1 mM ATP, 25 C (EMSA: 2 mM ATP, 37 C, then 0.2% glutaraldehyde); conditions: protein: recombinant; label: 5' TAMRA on strand 1; blunt
T2 sequence: T1 sequence with V295A

Rad51-L2 [3] = molecular target: T2, Rad51-L2; test: FRET; 1 mM ATP; 1.40x B-form; 30 mM HEPES-KOH pH 7.5, 100 mM KCl, 3 mM MgCl2, 1 mM DTT, 5% glycerol, 1 mM ATP, 25 C (EMSA: 2 mM ATP, 37 C, then 0.2% glutaraldehyde); conditions: protein: recombinant; label: internal fluorescein and ROX
Rad51 wild-type [4] = molecular target: T1, Rad51 wild-type; test: FRET; 1 mM ATP; ssDNA elongated to 1.45x B-form; 30 mM HEPES-KOH pH 7.5, 100 mM KCl, 3 mM MgCl2, 1 mM DTT, 5% glycerol, 1 mM ATP, 25 C (EMSA: 2 mM ATP, 37 C, then 0.2% glutaraldehyde); conditions: protein: recombinant; label: internal fluorescein and ROX
Rad51-S2 [5] = molecular target: T3, Rad51-S2 (Schizosaccharomyces pombe, UniProt P36601 1-365, R324A;K334A); test: FRET; 1 mM ATP; elongation comparable to WT; 30 mM HEPES-KOH pH 7.5, 100 mM KCl, 3 mM MgCl2, 1 mM DTT, 5% glycerol, 1 mM ATP, 25 C (EMSA: 2 mM ATP, 37 C, then 0.2% glutaraldehyde); conditions: protein: recombinant; label: internal fluorescein and ROX
T3 sequence: T1 sequence with R324A, K334A

Rad51-L1 [6] = molecular target: T4, Rad51-L1 (Schizosaccharomyces pombe, UniProt P36601 1-365, R257A); test: as above; conditions: protein: recombinant; label: internal fluorescein and ROX
T4 sequence: T1 sequence with R257A

Rad51-L2 [7] = molecular target: T2, Rad51-L2; test: FRET; 1 mM ATP; reduced elongation, 1.28x B-form; 30 mM HEPES-KOH pH 7.5, 100 mM KCl, 3 mM MgCl2, 1 mM DTT, 5% glycerol, 1 mM ATP, 25 C (EMSA: 2 mM ATP, 37 C, then 0.2% glutaraldehyde); conditions: protein: recombinant; label: internal fluorescein and ROX on strand 1; blunt
Rad51 wild-type [8] = molecular target: T1, Rad51 wild-type; test: FRET; 1 mM ATP; dsDNA elongated to 1.37x B-form; 30 mM HEPES-KOH pH 7.5, 100 mM KCl, 3 mM MgCl2, 1 mM DTT, 5% glycerol, 1 mM ATP, 25 C (EMSA: 2 mM ATP, 37 C, then 0.2% glutaraldehyde); conditions: protein: recombinant; label: internal fluorescein and ROX on strand 1; blunt
Rad51-L2 [9] = molecular target: T2, Rad51-L2; test: fluorescence anisotropy; 1 mM ATP, 3 mM MgCl2; Hill n 2.59; 30 mM HEPES-KOH pH 7.5, 100 mM KCl, 3 mM MgCl2, 1 mM DTT, 5% glycerol, 1 mM ATP, 25 C (EMSA: 2 mM ATP, 37 C, then 0.2% glutaraldehyde); conditions: protein: recombinant; label: 5' TAMRA
Rad51-L1 [10] = molecular target: T4, Rad51-L1; test: fluorescence anisotropy; 1 mM ATP, 3 mM MgCl2; Hill n 2.94; 30 mM HEPES-KOH pH 7.5, 100 mM KCl, 3 mM MgCl2, 1 mM DTT, 5% glycerol, 1 mM ATP, 25 C (EMSA: 2 mM ATP, 37 C, then 0.2% glutaraldehyde); conditions: protein: recombinant; label: 5' TAMRA
Rad51-S2 [11] = molecular target: T3, Rad51-S2; test: fluorescence anisotropy; 1 mM ATP, 3 mM MgCl2; Hill n 2.25; 30 mM HEPES-KOH pH 7.5, 100 mM KCl, 3 mM MgCl2, 1 mM DTT, 5% glycerol, 1 mM ATP, 25 C (EMSA: 2 mM ATP, 37 C, then 0.2% glutaraldehyde); conditions: protein: recombinant; label: 5' TAMRA
Rad51 wild-type [12] = molecular target: T1, Rad51 wild-type; test: fluorescence anisotropy; 1 mM ATP, 3 mM MgCl2; Hill n 2.86; 30 mM HEPES-KOH pH 7.5, 100 mM KCl, 3 mM MgCl2, 1 mM DTT, 5% glycerol, 1 mM ATP, 25 C (EMSA: 2 mM ATP, 37 C, then 0.2% glutaraldehyde); conditions: protein: recombinant; label: 5' TAMRA
Swi5-Sfr1 complex = molecular target: T5, Swi5-Sfr1 complex (UniProt Q9UUB7 1-85; Q9USV1 1-299); test: co-IP; purified Rad51 (2.5 uM) and Swi5-Sfr1 (2.5 uM) mixed in 30 mM Tris-HCl pH 7.5, 20 mM KCl, 3 mM MgCl2, 1 mM DTT, 5% glycerol, 0.05% NP-40, 30 min at 4 °C; precipitated with rabbit anti-Rad51 antibody and protein G magnetic beads; western blots for Rad51, Sfr1 and Swi5; conditions: both partners purified
T5 construct: Swi5, subunit of the Swi5-Sfr1 complex; Sfr1, subunit of the Swi5-Sfr1 complex; Over-expressed and purified as a preformed complex; detected in the co-IP by blots for Sfr1 and Swi5; No tag is mentioned; also called Swi5-Sfr1 auxiliary factor; source: E. coli BL21-Codonplus(DE3) RIPL, purified as a complex (ammonium sulfate, Q Sepharose, HiTrap Heparin, Superdex 200)
T5 sequence (looked up) 1: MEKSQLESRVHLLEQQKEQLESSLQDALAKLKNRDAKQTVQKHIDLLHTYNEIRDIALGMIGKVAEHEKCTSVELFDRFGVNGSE
T5 sequence (looked up) 2: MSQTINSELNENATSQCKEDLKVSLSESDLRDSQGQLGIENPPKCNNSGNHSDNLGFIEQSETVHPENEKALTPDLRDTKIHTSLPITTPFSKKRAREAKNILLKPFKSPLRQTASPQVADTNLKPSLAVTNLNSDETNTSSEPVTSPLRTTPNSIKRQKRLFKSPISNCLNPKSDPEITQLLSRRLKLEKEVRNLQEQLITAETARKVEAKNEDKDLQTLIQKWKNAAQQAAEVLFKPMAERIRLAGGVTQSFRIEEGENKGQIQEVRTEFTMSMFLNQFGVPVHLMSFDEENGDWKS

B1: [TAMRA]16A(-)_72 bp duplex (dsDNA)
DNA 1: AAATGAACATAAAGTAAATAAGTATAAGGATAATACAAAATAAGTAAATGAATAAACATAGAAAATAAAGTA
DNA 2: TACTTTATTTTCTATGTTTATTCATTTACTTATTTTGTATTATCCTTATACTTATTTACTTTATGTTCATTT
Kd (Rad51 wild-type [1]): 2610 ± 200 nM
Kd (Rad51-L2 [2]): 3.52 ± 0.31 µM

B2: 16(A)(-)_F+R_73 ssDNA (ssDNA)
DNA: AAATGAACATAAAGTAAATAAGTATAAGGATAATACAAAATTAAGTAAATGAATAAACATAGAAAATAAAGTA
modifications: fluorescein-dT at 31; ROX-dT at 42
binding result (Rad51-L2 [3]): binds
binding result (Rad51 wild-type [4]): binds
binding result (Rad51-S2 [5]): binds
binding result (Rad51-L1 [6]): binds

B3: 16(A)(-)_F+R_73 bp duplex (dsDNA)
DNA 1: B2 DNA
DNA 2: TACTTTATTTTCTATGTTTATTCATTTACTTAATTTTGTATTATCCTTATACTTATTTACTTTATGTTCATTT
modifications: fluorescein-dT at 31 and ROX-dT at 42 of strand 1
binding result (Rad51-L2 [7]): binds
binding result (Rad51 wild-type [8]): binds

B4: [TAMRA]dT72 (ssDNA)
DNA: TTTTTTTTTTTTTTTTTTTTTTTTTTTTTTTTTTTTTTTTTTTTTTTTTTTTTTTTTTTTTTTTTTTTTTTT
Kd (Rad51-L2 [9]): 308 ± 19 nM
Kd (Rad51-L1 [10]): 664 ± 18 nM
Kd (Rad51-S2 [11]): 895 ± 55 nM
Kd (Rad51 wild-type [12]): 358 ± 25 nM

B5: wild-type Rad51 from the fission yeast Schizosaccharomyces pombe (natural protein, UniProt P36601 1-365, looked up)
chain: T1 sequence
notes: Rad51 recombinase, Schizosaccharomyces pombe; No tag is mentioned; purification is by conventional chromatography; also called SpRad51; WT
binding result (Swi5-Sfr1 complex): binds

More lines, now with the values ahead:

binding result (Swi5-Sfr1 complex): binds
B6: Rad51-L2 mutant (V295A in loop 2) (natural protein, Schizosaccharomyces pombe, UniProt P36601 1-365, looked up)
chain: T1 sequence with V295A
notes: Rad51 recombinase, Schizosaccharomyces pombe, with V295A in L2; source: E. coli BL21-Codonplus(DE3) RIPL, purified (same procedure as wild-type Rad51)

binding result (Swi5-Sfr1 complex): binds
B7: Rad51-S2 mutant (R324A and K334A in site II) (natural protein, Schizosaccharomyces pombe, UniProt P36601 1-365, looked up)
chain: T1 sequence with R324A, K334A
notes: Rad51 recombinase, Schizosaccharomyces pombe, with R324A and K334A in site II; source: E. coli BL21-Codonplus(DE3) RIPL, purified (same procedure as wild-type Rad51)

binding result (Swi5-Sfr1 complex): binds
B8: Rad51-L1 mutant (R257A in loop 1) (natural protein, Schizosaccharomyces pombe, UniProt P36601 1-365, looked up)
chain: T1 sequence with R257A
notes: Rad51 recombinase, Schizosaccharomyces pombe, with R257A in L1; source: E. coli BL21-Codonplus(DE3) RIPL, purified (as wild-type Rad51, with a HiTrap Blue column instead of HiTrap Heparin)
